Measured values reported in publication PMC10928148 (Molecular Therapy, 2024).

How the values were obtained:
[1] = molecular target: T1, receptor binding domain of the SARS-CoV-2 (Wuhan) Spike protein with C-terminal 6xHis-tag (Severe acute respiratory syndrome …, UniProt P0DTC2); experiment: SPR; conditions: both partners purified
[2] = molecular target: T2, receptor binding domain of the SARS-CoV-2 (Wuhan) Spike protein with C-terminal 6xHis-tag (SARS-CoV-2 (Wuhan), UniProt P0DTC2); experiment: cell-based or functional assay
[3] = molecular target: T2, receptor binding domain of the …; experiment: SPR; conditions: both partners purified
[4] = molecular target: T1, receptor binding domain of the …; experiment: SPR; conditions: both partners purified; remark: listed apart in the source

| Binder | other [2] | Kd [3] | koff [3] | kon [3] | Kd [4] | other results |
| --- | --- | --- | --- | --- | --- | --- |
| COVA2-15 monomeric IgA1 (antibody, V domains shown) VH: QVQLLESGGGLVQPGGSLRLSCAASGFTFSSYAMSWVRQAPGKGLEWASAISGSGGSTYYADSVEGRFTISRDNSKNTLYLQMNSLRAEDTAVYYCAKDTGYCGDDCYIKLIRGGPDYWGQGTLVTVSS VL: DIVMTQSPLSLPVTLGQPASISCRSSQSLVYSDGNTFLNWFQQRPGQSPRRLIYQVSNRDSGVPDRFSGSGSGTDFTLKISRVEAEDVGVYYCMQGTHWPRTFGQGTKLEIK [COVA2-15 monomeric IgA1, listing 1 of 2 here] | – | – | – | – | – | Kd [1]: 1.43 nM; koff [1]: 0.00027 s⁻¹; kon [1]: 231000 M⁻¹ s⁻¹ |
| COVA2-15 secretory IgA2 (antibody, V domains shown) VH: QVQLLESGGGLVQPGGSLRLSCAASGFTFSSYAMSWVRQAPGKGLEWASAISGSGGSTYYADSVEGRFTISRDNSKNTLYLQMNSLRAEDTAVYYCAKDTGYCGDDCYIKLIRGGPDYWGQGTLVTVSS VL: DIVMTQSPLSLPVTLGQPASISCRSSQSLVYSDGNTFLNWFQQRPGQSPRRLIYQVSNRDSGVPDRFSGSGSGTDFTLKISRVEAEDVGVYYCMQGTHWPRTFGQGTKLEIK | 13.5 ng/mL | 0.76 nM | 0.00024 s⁻¹ | 326000 M⁻¹ s⁻¹ | – | – |
| COVA2-15 IgG (antibody, V domains shown) VH: QVQLLESGGGLVQPGGSLRLSCAASGFTFSSYAMSWVRQAPGKGLEWASAISGSGGSTYYADSVEGRFTISRDNSKNTLYLQMNSLRAEDTAVYYCAKDTGYCGDDCYIKLIRGGPDYWGQGTLVTVSS VL: DIVMTQSPLSLPVTLGQPASISCRSSQSLVYSDGNTFLNWFQQRPGQSPRRLIYQVSNRDSGVPDRFSGSGSGTDFTLKISRVEAEDVGVYYCMQGTHWPRTFGQGTKLEIK | 50 ng/mL | 0.74 nM | 0.00024 s⁻¹ | 333000 M⁻¹ s⁻¹ | – | – |
| COVA2-15 monomeric IgA2 (antibody, V domains shown) VH: QVQLLESGGGLVQPGGSLRLSCAASGFTFSSYAMSWVRQAPGKGLEWASAISGSGGSTYYADSVEGRFTISRDNSKNTLYLQMNSLRAEDTAVYYCAKDTGYCGDDCYIKLIRGGPDYWGQGTLVTVSS VL: DIVMTQSPLSLPVTLGQPASISCRSSQSLVYSDGNTFLNWFQQRPGQSPRRLIYQVSNRDSGVPDRFSGSGSGTDFTLKISRVEAEDVGVYYCMQGTHWPRTFGQGTKLEIK [COVA2-15 monomeric IgA2, listing 1 of 2 here] | 50 ng/mL | – | – | – | – | – |
| COVA2-15 secretory IgA1 (antibody, V domains shown) VH: QVQLLESGGGLVQPGGSLRLSCAASGFTFSSYAMSWVRQAPGKGLEWASAISGSGGSTYYADSVEGRFTISRDNSKNTLYLQMNSLRAEDTAVYYCAKDTGYCGDDCYIKLIRGGPDYWGQGTLVTVSS VL: DIVMTQSPLSLPVTLGQPASISCRSSQSLVYSDGNTFLNWFQQRPGQSPRRLIYQVSNRDSGVPDRFSGSGSGTDFTLKISRVEAEDVGVYYCMQGTHWPRTFGQGTKLEIK | 13.5 ng/mL | 0.38 nM | 0.00016 s⁻¹ | 423000 M⁻¹ s⁻¹ | – | – |
| COVA2-15 monomeric IgA2 (antibody, V domains shown) VH: QVQLLESGGGLVQPGGSLRLSCAASGFTFSSYAMSWVRQAPGKGLEWASAISGSGGSTYYADSVEGRFTISRDNSKNTLYLQMNSLRAEDTAVYYCAKDTGYCGDDCYIKLIRGGPDYWGQGTLVTVSS VL: DIVMTQSPLSLPVTLGQPASISCRSSQSLVYSDGNTFLNWFQQRPGQSPRRLIYQVSNRDSGVPDRFSGSGSGTDFTLKISRVEAEDVGVYYCMQGTHWPRTFGQGTKLEIK [COVA2-15 monomeric IgA2, listing 2 of 2 here] | – | – | – | – | – | Kd [1]: 1.67 nM; koff [1]: 0.00035 s⁻¹; kon [1]: 207000 M⁻¹ s⁻¹ |
| COVA2-15 monomeric IgA1 (antibody, V domains shown) VH: QVQLLESGGGLVQPGGSLRLSCAASGFTFSSYAMSWVRQAPGKGLEWASAISGSGGSTYYADSVEGRFTISRDNSKNTLYLQMNSLRAEDTAVYYCAKDTGYCGDDCYIKLIRGGPDYWGQGTLVTVSS VL: DIVMTQSPLSLPVTLGQPASISCRSSQSLVYSDGNTFLNWFQQRPGQSPRRLIYQVSNRDSGVPDRFSGSGSGTDFTLKISRVEAEDVGVYYCMQGTHWPRTFGQGTKLEIK [COVA2-15 monomeric IgA1, listing 2 of 2 here] | 50 ng/mL | – | – | – | – | – |
| 2-15 monomeric IgA1 (antibody, V domains shown) VH: QVQLVQSGAEVKKPGASVRVSCKASGYTFTGYYMHWVRQAPGQGLEWMGWINPISDGTNYAQKFQGWVTMTRDTSISTVYMELSRLRSDDTAVYYCARGGSRCSGGNCYGWAYDAFDIWGQGTMITVSS VL: QSALTQPASVSGSPGQSITISCTGTSSDVGGYNFVSWYQQHPGKAPKLMIYDVSKRPSGVSNRFSGSKSGNTASLTISGLQAEDEADCYCSSYTSSSTFVFGTGTKVTVL | – | – | – | – | 3.75 nM | – |
| 2-15 monomeric IgA2 (antibody, V domains shown) VH: QVQLVQSGAEVKKPGASVRVSCKASGYTFTGYYMHWVRQAPGQGLEWMGWINPISDGTNYAQKFQGWVTMTRDTSISTVYMELSRLRSDDTAVYYCARGGSRCSGGNCYGWAYDAFDIWGQGTMITVSS VL: QSALTQPASVSGSPGQSITISCTGTSSDVGGYNFVSWYQQHPGKAPKLMIYDVSKRPSGVSNRFSGSKSGNTASLTISGLQAEDEADCYCSSYTSSSTFVFGTGTKVTVL | – | – | – | – | 2.88 nM | – |
| 2-15 IgG (antibody, V domains shown) VH: QVQLVQSGAEVKKPGASVRVSCKASGYTFTGYYMHWVRQAPGQGLEWMGWINPISDGTNYAQKFQGWVTMTRDTSISTVYMELSRLRSDDTAVYYCARGGSRCSGGNCYGWAYDAFDIWGQGTMITVSS VL: QSALTQPASVSGSPGQSITISCTGTSSDVGGYNFVSWYQQHPGKAPKLMIYDVSKRPSGVSNRFSGSKSGNTASLTISGLQAEDEADCYCSSYTSSSTFVFGTGTKVTVL | – | – | – | – | 1.16 nM | – |
